Consider 11 compounds from article PMC5965843, “Structural study reveals the temperature-dependent conformational flexibility of Tk-PTP, a protein tyrosine phosphatase from Thermococcus kodakaraensis KOD1” (PLoS ONE, 2018).

The first data set has as its target T1, Tk-PTP (Thermococcus kodakarensis, UniProt Q8X270).
T1 construct: recombinant, E. coli BL21(DE3) RIL; codon-optimized gene; wild type in pET28a, N-terminal His6-tag removed by thrombin; mutants in pET21a, Ni-NTA purified; P-loop HC93MGGLGR99
Nature of the data set: X-ray crystal structure, […] Å. As to conditions: active site (P-loop); protein heated at 60°C for 3 h with sodium vanadate at 1:3 molar ratio. Type of data set: binding.
Regarding `[O]=[V]([OH])([OH])[OH]` [vanadate], the “X-ray crystal structure, 1.8 Å” value was “Vanadate is anchored in the active site of Tk-PTP(form II)”.

The test system of another data set is Cc1cc(=O)oc2c(F)c(OP(=O)(O)O)c(F)cc12. Nature of the data set: purified protein. As to conditions: 60°C (active form II), pH 5.0 sodium citrate, 200 mM NaCl, 5 mM dithiothreitol.
Consider Tk-PTP (Thermococcus kodakarensis KOD1), for which the Michaelis-Menten constant (Km) amounted to 0.276 mM and the kcat is 30.0 s⁻¹.

In the case of “Tk-PTP (Thermococcus kodakarensis KOD1; D63A)”, the Km was determined as 0.0274 ± 0.0106 mM and the kcat came to 1.29 ± 0.047 s⁻¹.

Take “Tk-PTP (Thermococcus kodakarensis KOD1; D63N)”: the Michaelis constant (Km) is reported as 0.252 ± 0.050 mM and the kcat turned out to be 2.92 ± 0.15 s⁻¹.

In the case of “Tk-PTP (Thermococcus kodakarensis KOD1; E132A)”, the Michaelis-Menten constant (Km) was 0.0230 ± 0.0084 mM and the kcat was 3.83 ± 0.14 s⁻¹.

As to “Tk-PTP (Thermococcus kodakarensis KOD1; E132L)”, the Km is listed as 0.251 ± 0.423 mM and the kcat turned out to be 2.97 ± 0.15 s⁻¹.

Consider “Tk-PTP (Thermococcus kodakarensis KOD1; E132Q)”, for which the Km was found to be 0.150 ± 0.062 mM and the turnover number (kcat) was 8.82 ± 0.13 s⁻¹.

Regarding “Tk-PTP (Thermococcus kodakarensis KOD1; G95A)”, the Km is reported as 0.106 ± 0.010 mM and the turnover number (kcat) was 35.8 ± 0.7 s⁻¹.

Turning to “Tk-PTP (Thermococcus kodakarensis KOD1; Q136A)”, the Km came to 0.135 ± 0.016 mM and the turnover number (kcat) worked out at 0.460 ± 0.015 s⁻¹.

For the compound “Tk-PTP (Thermococcus kodakarensis KOD1; R124A)”, the Km is given as 0.301 ± 0.109 mM and the kcat stood at 1.59 ± 0.65 s⁻¹.

As to “Tk-PTP (Thermococcus kodakarensis KOD1; R124E)”, the Michaelis constant (Km) stood at 0.258 ± 0.043 mM and the turnover number (kcat) amounted to 0.188 ± 0.052 s⁻¹.

As a reminder, the Km is the concentration of substrate that gives half-maximal velocity. As a reminder, the kcat is the maximal rate divided by the concentration of active sites.
